Target: recombinant Cse4 (S. cerevisiae) (UniProt P36012)
Assay: SEC

In the case of “recombinant Cse4 (from UniProt P36012 1-229) (natural protein; other documents disagree on this pair)”, the stoichiometry N was 2.

— article PMC2757638
